Assay results taken from publication PMC7441159, “The metal binding site composition of the cation diffusion facilitator protein MamM cytoplasmic domain impacts its metal responsivity” (Scientific Reports, 2020).

Target: the molecule itself
Test: crystal structure; homodimer seen in the crystal; vapor diffusion at 293 K, protein at 20 mg/mL in 10 mM Tris pH 8.0, 150 mM NaCl, 5 mM β-mercaptoethanol and 3.375 mM metal solution (ZnCl2, CdCl2, MnCl2, NiCl2 or CuSO4)

Protein	binding result
MamM CTD H264E (domain or fragment, Magnetospirillum gryphiswaldense MSR-1, UniProt V6F235 215-318, looked up, MamM cytoplasmic C-terminal domain (CTD), Magnetospirillum gryphiswaldense MSR-1, UniProt Q6NE57 residues 215-318; A thrombin site follows the His tag) EAVQNRIVEAAERVPGVRGVIHLRARYVGQDIWADMIIGVDPENTVEQAEEICEAVQAAVCGKIRRIESLHVSAEAREIGDTTKPSFSDQPLSFDEVMLSKVDN	binds
MamM CTD E289H (domain or fragment, Magnetospirillum gryphiswaldense MSR-1, UniProt V6F235 215-318, looked up, MamM cytoplasmic C-terminal domain (CTD), Magnetospirillum gryphiswaldense MSR-1, UniProt Q6NE57 residues 215-318; A thrombin site follows the His tag) EAVQNRIVEAAERVPGVRGVIHLRARYVGQDIWADMIIGVDPENTVEQAHEICEAVQAAVCGKIRRIESLHVSAHAREIGDTTKPSFSDQPLSFDEVMLSKVDN	binds
MamM CTD H264E-E289H (domain or fragment, Magnetospirillum gryphiswaldense MSR-1, UniProt V6F235 215-318, looked up, MamM cytoplasmic C-terminal domain (CTD), Magnetospirillum gryphiswaldense MSR-1, UniProt Q6NE57 residues 215-318; A thrombin site follows the His tag; also called E289H-H264E) EAVQNRIVEAAERVPGVRGVIHLRARYVGQDIWADMIIGVDPENTVEQAEEICEAVQAAVCGKIRRIESLHVSAHAREIGDTTKPSFSDQPLSFDEVMLSKVDN	binds
MamM CTD D249E (domain or fragment, Magnetospirillum gryphiswaldense MSR-1, UniProt V6F235 215-318, looked up, MamM cytoplasmic C-terminal domain (CTD), Magnetospirillum gryphiswaldense MSR-1, UniProt Q6NE57 residues 215-318; A thrombin site follows the His tag) EAVQNRIVEAAERVPGVRGVIHLRARYVGQDIWAEMIIGVDPENTVEQAHEICEAVQAAVCGKIRRIESLHVSAEAREIGDTTKPSFSDQPLSFDEVMLSKVDN	binds
MamM CTD D249H (domain or fragment, Magnetospirillum gryphiswaldense MSR-1, UniProt V6F235 215-318, looked up, MamM cytoplasmic C-terminal domain (CTD), Magnetospirillum gryphiswaldense MSR-1, UniProt Q6NE57 residues 215-318; A thrombin site follows the His tag) EAVQNRIVEAAERVPGVRGVIHLRARYVGQDIWAHMIIGVDPENTVEQAHEICEAVQAAVCGKIRRIESLHVSAEAREIGDTTKPSFSDQPLSFDEVMLSKVDN	binds
MamM CTD H285D (domain or fragment, Magnetospirillum gryphiswaldense MSR-1, UniProt V6F235 215-318, looked up, MamM cytoplasmic C-terminal domain (CTD), Magnetospirillum gryphiswaldense MSR-1, UniProt Q6NE57 residues 215-318; A thrombin site follows the His tag) EAVQNRIVEAAERVPGVRGVIHLRARYVGQDIWADMIIGVDPENTVEQAHEICEAVQAAVCGKIRRIESLDVSAEAREIGDTTKPSFSDQPLSFDEVMLSKVDN	binds
MamM CTD D249N (domain or fragment, Magnetospirillum gryphiswaldense MSR-1, UniProt V6F235 215-318, looked up, MamM cytoplasmic C-terminal domain (CTD), Magnetospirillum gryphiswaldense MSR-1, UniProt Q6NE57 residues 215-318; A thrombin site follows the His tag) EAVQNRIVEAAERVPGVRGVIHLRARYVGQDIWANMIIGVDPENTVEQAHEICEAVQAAVCGKIRRIESLHVSAEAREIGDTTKPSFSDQPLSFDEVMLSKVDN	binds
MamM CTD E289D (domain or fragment, Magnetospirillum gryphiswaldense MSR-1, UniProt V6F235 215-318, looked up, MamM cytoplasmic C-terminal domain (CTD), Magnetospirillum gryphiswaldense MSR-1, UniProt Q6NE57 residues 215-318; A thrombin site follows the His tag) EAVQNRIVEAAERVPGVRGVIHLRARYVGQDIWADMIIGVDPENTVEQAHEICEAVQAAVCGKIRRIESLHVSADAREIGDTTKPSFSDQPLSFDEVMLSKVDN	binds
MamM CTD D249H-H285D (domain or fragment, Magnetospirillum gryphiswaldense MSR-1, UniProt V6F235 215-318, looked up, MamM cytoplasmic C-terminal domain (CTD), Magnetospirillum gryphiswaldense MSR-1, UniProt Q6NE57 residues 215-318; A thrombin site follows the His tag) EAVQNRIVEAAERVPGVRGVIHLRARYVGQDIWAHMIIGVDPENTVEQAHEICEAVQAAVCGKIRRIESLDVSAEAREIGDTTKPSFSDQPLSFDEVMLSKVDN	binds
